A short description of data set [1]: Rotational correlation time from 15N T1/T2 NMR relaxation. The class given is physicochemical. To be noted: 30° C.; error is 95% confidence interval. As for the experimental part: NMR data were recorded for temperatures between 30° C. and 55° C., as noted in the main text, with a Broker Avance™ III spectrometer operating at 800 MHz, running Topspin™ version 3.6.3 and equipped with a 5 mm TXI cryoprobe. The temperature was calibrated using a standard sample of 4% methanol in d4-MeOH. 2D [^15N, ^1H]-HSQC spectra were recorded using a gradient sensitivity-enhanced pulse sequence (hsqcetf3gpsi) with 2048 points in the direct dimension, between 180 to 260 points in the indirect dimension and between 32 to 736 scans per experiment, depending on the final sample concentration to achieve similar signal-to-noise ratios for all data. The ^15N T1 and T2 relaxation measurements were acquired with 1D ^15N-edited HSQC-based experiments (hsqct1etf3gpsi3d and hsqct2etf3gpsi3d) with 2048 points and 512 scans per experiment. For T1 measurements, experiments were recorded with relaxation delays of 0.02, 0.05, 0.1, 0.2, 0.3, 0.4, 0.6, 0.8,1, 1.2 or 1.5 s. […]
The rotational correlation times τc of Gal3C[T243C] and Gal3C[T243C]-PEG was then determined from T1 and T2 using the following spectral density function (j(ω)) equations […]
To investigate whether PEG and Gal3C[T243C] behaved more as two independent domains within the conjugated protein or if they interacted more closely, the rotational correlation times (τc) for Gal3C[T243C] and Gal3C[T243C]-PEG at 30° C. were determined. […]

Data set [2] can be described thus: Equilibrium binding of LacNac, intrinsic tryptophan fluorescence. Conditions: ligand LacNac; average ± standard deviation of 3 replicated experiments; PBS; read-out: Kd (equilibrium binding constant). How it is done: Equilibrium binding data were recorded using a protocol adapted from a previous procedure from Restuccia, et al (38). Intrinsic tryptophan fluorescence was monitored using a Cary Eclipse™ Fluorescence Spectrophotometer (Agilent) operating with Cary Eclipse™ WinFLR software version 1.2 in ‘Scan Mode’. The instrument method parameters were as follows: excitation wavelength was 280 nm, the acquisition range was from 290 nm to 440 nm and the photomultiplier tube sensitivity was set to ‘medium’. Samples were prepared at final concentrations of 1 μM for Gal3C[T243C] or 5 μM Gal3C[T243C]-PEG in 800 ∥L, in PBS for each titration. Samples were pipetted into 0.7×0.7 cm quartz cuvettes with a micro stir bar. Each new experiment was first zeroed against PBS to remove the small background signal from the buffer. […]
The binding affinity and specificity of Gal3C[T243C]-PEG was compared with Gal3C[T243C] and Gal3C (see FIG. 1C, FIG. 9 and FIG. 10) via an inherent tryptophan fluorescence assay optimized to ensure equilibrium binding conditions. Binding of lactose or LacNac quenches the fluorescence of W181, located adjacent to the bound sugar in the crystal structure of Gal3C, thus permitting direct measurement of ligand Kd values. […]

One molecule from US20240100174A1, “PROTEIN-PEG INTERACTIONS THAT REDIRECT THE THERMAL UNFOLDING PATHWAY OF PEGYLATED HUMAN GALECTIN-3C” (UNIVERSITY OF FLORIDA RESEARCH FOUNDATION, INCORPORATED, priority 2022, published 2024) can be followed below.

B1: Gal3C[T243C]: Gal3C variant with a single extrinsic cysteine at position 243; SEQ ID NO: 11 (protein)
chain: MAGPLIVPYNLPLPGGVVPRMLITILGTVKPNANRIALDFQRGNDVAFHFNPRFNENNRRVIVCNTKLDNNWGREERQSVFPFESGKPFKIQVLVEPDHFKVAVNDAHLLQYNHRVKKLNEISKLGISGDIDLTSASYCMILEHHHHHH
Consider B1, for which the “rotational correlation time (τc)” value in data set [1] is 10.7 (±0.7) ns. Moreover, in data set [2], the Kd (in general, the free concentration of one partner at which half of the binding sites on the other are occupied at equilibrium, for simple one-to-one binding) stood at 230 ± 56.5 µM.
